Values of other authors in PMC3384300.
pKd: −log10 of the molar value.

Test system: MS2 coat protein (bacteriophage MS2?)

## natural MS2 coat protein aptamer
  pKd: 10.70
